Key:
ob/ob mice = test: CA33 treatment of leptin-deficient ob/ob mice; assay type: in vivo, mouse
Description: FIG. 11C is a bar graph showing fasting blood glucose levels (mg/dl) in ob/ob mice before (open bars) and after (solid bars) 3 weeks of CA33 antibody or vehicle treatment (n=10 mice per group). **p<0.01.
The test was performed after 2 weeks of vehicle (triangles) or CA33 antibody treatment (squares) in aP2−/− mice. *p<0.05.
(§1) The test was performed after 3 weeks of vehicle (triangles) or CA33 antibody treatment (squares) in aP2−/− mice.
as §1
Animal care and experimental procedures were performed with approval from animal care committees of Harvard University. Male mice (leptin-deficient (ob/ob) and diet induced obese (DIO) mice with C57BL/6J background) were purchased from The Jackson Laboratory (Bar Harbor, ME) and kept on a 12-hour light/dark cycle. DIO mice with C57BL/6J background were maintained on high-fat diet (60% kcal fat, Research Diets, Inc., D12492i) for 12 to 15 weeks before starting treatment except in clamp studies, for which they were on HFD for 20 weeks. Leptin-deficient (ob/ob) mice were maintained on regular chow diet (RD, PicoLab 5058 Lab Diet). Animals used were 18 to 31 weeks of age for dietary models and 9 to 12 weeks of age for the ob/ob model. In all experiments, at least 7 mice in each group were used, unless otherwise stated in the text. The mice were treated with 150 μl PBS (vehicle) or 1.5 mg/mouse (˜33 mg/kg) anti-aP2 monoclonal antibody in 150 μl PBS by twice weekly subcutaneous injections for 3 to 5 weeks. Before and after the treatment, blood samples were collected from the tail after 6 hours of daytime food withdrawal. Body weights were measured weekly in the fed state. Blood glucose levels were measured weekly after 6 hours of food withdrawal or after 16 hours overnight fast. After 2 weeks of treatment, glucose tolerance tests were performed by intraperitoneal glucose injections (0.75 g/kg for DIO, 0.5 g/kg for ob/ob mice). After 3 weeks of treatment, insulin tolerance tests were performed in DIO mice by intraperitoneal insulin injections (0.75 IU/kg). After 5 weeks of treatment, hyperinsulinemic-euglycemic clamp experiments were performed in DIO mice as previously described (Furuhashi et al., (2007) Nature 447, 959-965; Maeda et al., (2005) Cell metabolism 1, 107-119).
Finally, the effect of CA33 in a second model of severe genetic obesity and insulin resistance using leptin-deficient ob/ob mice was examined. Strikingly, hyperglycemia in the ob/ob mice was normalized in CA33-treated mice compared to controls (FIG. 11C).

aP2 knockout mice = test: Glucagon response of aP2 knockout mice given aP2, with or without CA33 preincubation; assay type: in vivo, mouse; conditions: CA33 preincubated with aP2
Excerpt: Mouse and rabbit-mouse hybrid monoclonal antibodies raised against the human and mouse aP2 peptides were produced and screened. […] The systemic improvement in glucose metabolism was further verified using a glucose tolerance test (GTT).

Mouse aP2 = target: T1, Mouse aP2 (Mus musculus, UniProt P04117); test: Biacore binding of CA33 to lipid-bound and lipid-free aP2
T1 construct: 10 His-tag (N, cleaved yes); TEV protease site (N, cleaved yes); made in house; host or cells: E. coli BL21DE3
T1 sequence (P04117 1-132): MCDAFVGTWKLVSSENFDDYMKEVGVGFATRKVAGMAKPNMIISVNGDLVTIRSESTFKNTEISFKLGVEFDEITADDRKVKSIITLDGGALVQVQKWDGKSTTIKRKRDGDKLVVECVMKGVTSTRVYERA
Description: The affinity of anti-aP2 binding to aP2 (recombinantly generated in E. coli as described below) was determined by biomolecular interaction analysis, using a Biacore T200 system (GE Healthcare). Affinipure F(ab′)2 fragment goat anti-mouse IgG, Fc fragment specific (Jackson ImmunoResearch Lab, Inc.) in 10 mM NaAc, pH 5 buffer was immobilized on a CM5 Sensor Chip via amine coupling chemistry to a capture level between 4500-6000 response units (RU) using HBS-EP+(GE Healthcare) as the running buffer. Anti-aP2 IgG was diluted to between 1-10 μg/ml in running buffer. A 60 s injection of anti-aP2 IgG at 10 μl/min was used for capture by the immobilized anti-mouse IgG, Fc then aP2 was titrated from 25 nM to 3.13 nM over the captured anti-aP2 for 180 s at 30 μl/min followed by 300 s dissociation. The surface was regenerated by 2×60 s 40 mM HCl and 1×30 s 5 mM NaOH at 10 μl/min. The data were analyzed using Biacore T200 evaluation software (version 1.0) using the 1:1 binding model with local Rmax. For CA33, 60 s injection of the antibody at 10 μl/min was used for capture by the immobilized anti-mouse IgG, Fc then aP2 was titrated from 40 μM to 0.625 μM over the captured anti-aP2 for 180 s at 30 μl/min followed by 300 s dissociation. The surface was regenerated by 1×60 s 40 mM HCl, 1×30 s 5 mM NaOH and 1×60 s 40 mM HCl at 10 μl/min. Steady state fitting was used to determine affinity values. […]

B1: CA33: low-affinity anti-aP2 monoclonal antibody, rabbit-mouse hybrid, produced and purified by UCB; VL Seq. ID 28, VH Seq. ID 41 (antibody, V domains shown)
VH: QSVEESGGRLVTPGTPLTLTCTVSGFSLSTYYMSWVRQAPGKGLEWIGIIYPSGSTYCASWAKGRFTISKASTTVDLKITSPTTEDTATYFCARPDNDGTSGYLSGFGLWGQGTLVTVSS
VL: DVVMTQTPASVSEPVGGTVTIKCQASEDISRYLVWYQQKPGQPPKRLIYKASTLASGVPSRFKGSGSGTDFTLTISDLECDDAATYYCQCTYGTYAGSFFYSFGGGTEVVVE
modifications: Rabbit Ab 909 VH region; Rabbit Ab 909 VL-region
- Insulin levels (ob/ob mice; ob/ob mice): lower insulin levels
- Glucagon response (ob/ob mice; ob/ob mice after 3 weeks of treatment): blunts the glucagon response
- Hyperglycemia (fasting blood glucose) (ob/ob mice; ob/ob mice, 3 weeks of treatment, vs controls): normalized
- Glucose tolerance (GTT) (ob/ob mice; ob/ob mice, after 2 weeks, vs vehicle): significantly improved glucose tolerance
- Glucagon responsiveness of aP2 knockout mice (aP2 knockout mice): prevents that
- Kd (Mouse aP2; De-lipidated mouse aP2, Biacore): 4.7 µM
- Kd (Mouse aP2; Lipid-loaded mouse aP2, Biacore): 9.3 µM

From patent publication US20250346646A1, “COMPOUNDS USEFUL TO TREAT METABOLIC DISORDERS” (President and Fellows of Harvard College, priority 2016, published 2025)
